According to PMC5301203:
One block for each substance: values may come before it.

What was measured:
[1] = target: dockerin D61 (group 6) of R. flavefaciens FD-1 (Ruminococcus flavefaciens FD-1); experiment: ITC; 10-uL aliquots of 80-180 uM cohesin injected into 20-30 uM thioredoxin-fused dockerin; 308.16 K; 50 mM Na-HEPES pH 7.5, 2 mM CaCl2, 0.5 mM TCEP; single-site model
[2] = target: dockerin D37 (group 3) of R. flavefaciens FD-1 (Ruminococcus flavefaciens FD-1); experiment: as above
[3] = target: group-6 dockerin D61, thioredoxin-fused (pETG-20A) (Ruminococcus flavefaciens FD-1); experiment: ITC; thioredoxin-fused dockerin (20-30 uM) in the cell, cohesin (80-180 uM) injected; 308.16 K; 50 mM Na-HEPES pH 7.5, 2 mM CaCl2, 0.5 mM TCEP; single-site model
[4] = target: group-3 dockerin D37, thioredoxin-fused (pETG-20A) (Ruminococcus flavefaciens FD-1); experiment: as above
[5] = target: ScaH dockerin D49, thioredoxin-fused (pETG-20A) (Ruminococcus flavefaciens FD-1); experiment: as above
ScaH dockerin D49, thioredoxin-fused (pETG-20A) (Ruminococcus flavefaciens FD-1), sequence (main, as listed by the source): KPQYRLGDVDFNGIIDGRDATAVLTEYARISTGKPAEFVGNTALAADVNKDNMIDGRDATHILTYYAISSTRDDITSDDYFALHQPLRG

[6] = target: group-2 dockerin D35 (ZP_06143271), thioredoxin-fused (pETG-20A) (Ruminococcus flavefaciens FD-1); experiment: as above
[7] = target: ScaE cohesin of R. flavefaciens FD-1; experiment: ELISA; conditions: read off a plot

Ka [1]: 1e+08 M⁻¹
stoichiometry N [1]: 1
Ka [2]: 1e+08 M⁻¹
stoichiometry N [2]: 1
Substance: ScaC cohesin of R. flavefaciens FD-1 (domain or fragment)

Ka [3]: 3.54e+08 M⁻¹
Ka [4]: 2.69e+08 M⁻¹
Substance: ScaC cohesin, His-tagged (pET21a) (domain or fragment)

Ka [5]: 1.56e+06 M⁻¹
Ka [6]: 6.17e+07 M⁻¹
Substance: ScaE cohesin, His-tagged (pET21a) (domain or fragment)

other: pEC50 ([7]; parent: est. 10.2): 10
Substance: dockerin of ScaH, ZP_06142361 (Coh-Doc) G11A; R12A

other: pEC50 ([7]; parent: est. 10.2): 9.1
Substance: dockerin of ScaH, ZP_06142361 (Coh-Doc) G11A; R12A; G50A; R51A

other: pEC50 ([7]; parent: est. 10.2): 9.9
Substance: dockerin of ScaH, ZP_06142361 (Coh-Doc) G50A; R51A

other: pEC50 ([7]; parent: est. 8.6): 8.6
Substance: dockerin of the peptidase ZP_06142181 (Peptidase-UNK-Doc) G11A; R12A

other: pEC50 ([7]; parent: est. 8.6): 7.6
Substance: dockerin of the peptidase ZP_06142181 (Peptidase-UNK-Doc) G11A; R12A; G50A; R51A

other: pEC50 ([7]; parent: est. 8.6): 8.2
Substance: dockerin of the peptidase ZP_06142181 (Peptidase-UNK-Doc) G50A; R51A
